Non-standard residues stand in square brackets, D forms with d. No end group written: not given here. βAla = NCCC(=O)O

Here are results for 2 molecules from patent US20140057833A1 (TEMPLE UNIVERSITY OF THE COMMONWEALTH SYSTEM OF HIGHER …, published 2014).

For the assay, the target named is T1, AdipoR1 (UniProt Q96A54 1-375, limits assumed).
T1 sequence (looked up): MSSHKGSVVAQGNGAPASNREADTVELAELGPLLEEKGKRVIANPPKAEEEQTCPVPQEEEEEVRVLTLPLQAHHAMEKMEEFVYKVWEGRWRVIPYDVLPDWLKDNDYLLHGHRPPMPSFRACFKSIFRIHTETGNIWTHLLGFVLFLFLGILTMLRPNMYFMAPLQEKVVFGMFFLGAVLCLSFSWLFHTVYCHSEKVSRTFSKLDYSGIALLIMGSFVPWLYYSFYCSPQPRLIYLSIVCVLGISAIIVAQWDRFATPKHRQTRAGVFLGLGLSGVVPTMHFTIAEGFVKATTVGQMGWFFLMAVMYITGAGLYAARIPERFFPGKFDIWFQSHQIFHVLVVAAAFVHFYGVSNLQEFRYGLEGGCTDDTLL
Nature of the assay: cell-based or functional assay.

In turn, “globular adiponectin (gAd) (from UniProt Q15848 108-244) (ligand)” displayed an MCF-7 cell growth restriction at 50 ng/mL of 18%.

B1: ADP 25-β-AlaNH2 (peptide)
peptide: NIPGLYYFAY[βAla]-NH2
modifications: N-terminus assumed
SMILES: CC[C@H](C)[C@H](NC(=O)[C@@H](N)CC(N)=O)C(=O)N1CCC[C@H]1C(=O)NCC(=O)N[C@@H](CC(C)C)C(=O)N[C@@H](Cc1ccc(O)cc1)C(=O)N[C@@H](Cc1ccc(O)cc1)C(=O)N[C@@H](Cc1ccccc1)C(=O)N[C@@H](C)C(=O)N[C@@H](Cc1ccc(O)cc1)C(=O)NCCC(N)=O
B1: the “MCF-7 cell proliferation inhibition at 50 ng/mL relative to untreated controls” value stood at 20%.
